One block for each substance: values may come before it.
Molecular target: histone H3 trimethylated at lysine 9 (H3K9me3) in chromatin of NIH-3T3 cells (UniProt P68433)

score: coefficient of the linear model for the difference between TnH and Tn5 enrichment (scGET-seq, NIH-3T3), region chrUn JH584304:0-114452, cell group 0 (G1/S): 0.198
Substance: TnH #3: 112aaCD (HP1α)-3×(TGS)-Tn5

score: coefficient of the linear model for the difference between TnH and Tn5 enrichment (scGET-seq, NIH-3T3), region chrUn JH584304:0-114452, cell group 1 (G2/M): -0.133 | score: coefficient of the linear model for the difference between TnH and Tn5 enrichment (scGET-seq, NIH-3T3), region chrUn JH584304:0-114452, cell group 2 (G2/M): -0.105 | score: coefficient of the linear model for the difference between TnH and Tn5 enrichment (scGET-seq, NIH-3T3), region chrUn JH584304:0-114452, cell group 3 (G1/S): 0.329 | score: coefficient of the linear model for the difference between TnH and Tn5 enrichment (scGET-seq, NIH-3T3), region chrUn JH584304:0-114452, cell group 4 (G1/S): 0.067 | score: coefficient of the linear model for the difference between TnH and Tn5 enrichment (scGET-seq, NIH-3T3), region chrUn JH584304:0-114452, cell group 5 (G2/M): -0.146 | score: coefficient of the linear model for the difference between TnH and Tn5 enrichment (scGET-seq, NIH-3T3), region chrUn JH584304:0-114452, cell group 6 (G1/S): 0.138 | score: coefficient of the linear model for the difference between TnH and Tn5 enrichment (scGET-seq, NIH-3T3), region chrUn JH584304:0-114452, cell group 7 (G2/M): -0.189 | score: coefficient of the linear model for the difference between TnH and Tn5 enrichment (scGET-seq, NIH-3T3), region chrUn JH584304:0-114452, cell group 8 (G2/M): -0.287 | score: coefficient of the linear model for the difference between TnH and Tn5 enrichment (scGET-seq, NIH-3T3), region chrUn JH584304:0-114452, cell group 9 (G1/S): -0.523 | score: coefficient of the linear model for the difference between TnH and Tn5 enrichment (scGET-seq, NIH-3T3), region chrUn JH584304:0-114452, cell group 10 (G2/M): -0.073 | score: coefficient of the linear model for the difference between TnH and Tn5 enrichment (scGET-seq, NIH-3T3), region chrUn JH584304:0-114452, cell group 11 (G1/S): -0.457 | score: coefficient of the linear model for the difference between TnH and Tn5 enrichment (scGET-seq, NIH-3T3), region chrUn JH584304:0-114452, cell group 12 (G1/S): 0.163 | score: coefficient of the linear model for the difference between TnH and Tn5 enrichment (scGET-seq, NIH-3T3), region chrUn JH584304:0-114452, cell group 13 (G2/M): -0.528 | score: coefficient of the linear model for the difference between TnH and Tn5 enrichment (scGET-seq, NIH-3T3), region chrUn JH584304:0-114452, cell group 14 (G2/M): -0.28 | score: coefficient of the linear model for the difference between TnH and Tn5 enrichment (scGET-seq, NIH-3T3), region chrUn JH584304:0-114452, cell group 15 (G1/S): -0.47 | score: coefficient of the linear model for the difference between TnH and Tn5 enrichment (scGET-seq, NIH-3T3), region chrUn JH584304:0-114452, cell group 16 (G1/S): 0.576 | score: coefficient of the linear model for the difference between TnH and Tn5 enrichment (scGET-seq, NIH-3T3), region chrUn JH584304:0-114452, cell group 17 (G2/M): 0.468 | score: coefficient of the linear model for the difference between TnH and Tn5 enrichment (scGET-seq, NIH-3T3), region chrUn JH584304:0-114452, cell group 18 (G1/S): -0.089 | score: coefficient of the linear model for the difference between TnH and Tn5 enrichment (scGET-seq, NIH-3T3), region chrUn JH584304:0-114452, cell group 19 (G1/S): -0.129 | score: coefficient of the linear model for the difference between TnH and Tn5 enrichment (scGET-seq, NIH-3T3), region chrUn JH584304:0-114452, cell group 20 (G2/M): -0.011 | score: coefficient of the linear model for the difference between TnH and Tn5 enrichment (scGET-seq, NIH-3T3), region chrUn JH584304:0-114452, cell group 21 (G2/M): 0.138
Substance: TnH #3: 112aaCD (HP1α)-3×(TGS)-Tn5 (enzyme)

Reference: US20240425848A1
